Literature values in publication PMC12930849.
“And” between values parts separate entries of the source, which are not always exact repeats. Equal values may be shown once.

Tests used:
Assay in all cases: NMR
Asp101 = Asp101 (UniProt position 119, KKIVSDGNGMN)
Asp119 = Asp119 (UniProt position 137, RCKGTDVQAWI)
Asp18 = Asp18 (UniProt position 36, KRHGLDNYRGY)
Asp52 = Asp52 (UniProt position 70, TDGSTDYGILQ)
Asp87 = Asp87 (UniProt position 105, ALLSSDITASV)
Cterm = Cterm (UniProt position 147, IRGCRL-----)
Glu35 = Glu35 (UniProt position 53, CAAKFESNFNT)
Glu7 = Glu7 (UniProt position 25, VFGRCELAAAM)
His15 = His15 (UniProt position 33, AAMKRHGLDNY)

Q: What does the source list for “Hen egg-white lysozyme (lysozyme C) (Gallus gallus)”?
A: pKa (Asp101): 4.09 ± 0.07 and 4.5 ± 0.1; pKa (Asp119): 3.20 ± 0.09 and 3.5 ± 0.3; pKa (Asp18): 2.66 ± 0.08 and 2.8 ± 0.3; pKa (Asp52): 3.68 ± 0.08 and 3.6 ± 0.3; pKa (Asp87): 2.07 ± 0.15 and 2.2 ± 0.1; pKa (Cterm): 2.75 ± 0.02 and 2.7 ± 0.2; pKa (Glu35): 6.20 ± 0.10 and 6.1 ± 0.4; pKa (Glu7): 2.85 ± 0.25 and 2.6 ± 0.2; pKa (His15): 5.36 ± 0.07 and 5.5 ± 0.2
